The source of these data is patent US20230340128A1 (Xencor, published 2023).

Positions count from the first letter of the chain named.

For experiment [1], the target named is T1, human mesothelin (MSLN) (human, UniProt Q13421 296-580, limits assumed).
T1 construct: Antigen of the Octet KD values
Kind of experiment: BLI (Octet), multiple concentrations, bsAb in 1+1 Fab-scFv-Fc format. (In BLI a coated tip is dipped into the sample, and binding shifts an interference pattern.)

Experiment [2] deals with T2, human CD28 (human, UniProt P10747 19-152, limits assumed).
T2 construct: also called Cluster of Differentiation 28; Tp44
Kind of experiment: label in the legend box: nominal affinity of the CD28 binding domain (paragraph 422 calls such label values KD); method not stated on the sheet.

Experiment [3] deals with T1, human mesothelin (MSLN). Description: label in the legend box: nominal affinity of the MSLN binding domain (paragraph 422 calls such label values KD); method not stated on the sheet.
Experiment [4] deals with T3, MSLN on OVCAR8 cells (~90K MSLN antigens/cell) (UniProt Q13421 296-598). Kind of experiment: binding to OVCAR8 cells, MFI APC against mAb concentration.
The target in experiment [5] is T1, human mesothelin (MSLN). Description: BLI (Octet), multiple concentrations, bsAb in 1+1 Fab-scFv-Fc format; lower table, column 'human MSLN (M)'.
Experiment [6] deals with T2, human CD28. Description: method not stated; Monovalent CD28 KD, table headed 1A7[CD28] H1_L1.71 (aka 180 nM).
Experiment [7] deals with T1, human mesothelin (MSLN). Description: KD quoted in the FIG. 25 legend; Octet (BLI) per FIGS. 20-21.
Experiment [8] concerns the target T3, MSLN on OVCAR8 cells (~90K MSLN …). Kind of experiment: binding to OVCAR8 cells, MFI APC against mAb concentration. This is another data set of the same source.
The target of experiment [9] is T4, MSLN on OVCAR8 cells (~90K MSLN antigens/cell) (UniProt Q13421 296-598).
T4 construct: whole, on cells; Endogenous expression on a cancer cell line
Description: flow cytometry on OVCAR8 cells, 1 h at 4 C, anti-human-Fc A647 secondary. As for the experimental part: In this experiment, 50,000 OVCAR8 cells (˜90K MSLN antigens/cell) were seeded per well in a plate. Anti-human-Fc secondary (A647) was added for 30 min at 4° C., and binding was assessed via FACs. FIG. 39C depicts that the CD28×MSLN bsAbs in neither 1+1-Fab-scFv format nor the 2+1 mAb-scFv format antibodies show any significant off target binding. In this experiment, 50,000 SKOV3 cells (˜9K MSLN antigens/cell) were seeded per well in a plate. Anti-human-Fc secondary (A647) was added for 30 min at 4° C., and binding was assessed via FACs.
In order to assess the binding of MSLN×CD28 bsAbs in different formats, an experiment was conducted in which 50,000 OVCAR8 cells (˜90K MSLN antigens/cell) were seeded per well in a plate. Anti-human-Fc secondary (A647) was added for 30 min at 4° C., and binding was assessed via FACs.
A general note: A flow cytometer gives signals particle by particle.

In experiment [10] the target is T2, human CD28. Description: label in the legend box: nominal affinity of the CD28 binding domain (paragraph 422 calls such label values KD); method not stated on the sheet. This is another data set of the same source.
The target of experiment [11] is T1, human mesothelin (MSLN). Kind of experiment: label in the legend box: nominal affinity of the MSLN binding domain (paragraph 422 calls such label values KD); method not stated on the sheet. The source holds these as a separate data set.

B1: XENP32937 (bispecific antibody)
chain 1: QVQLVQSGAEVKKPGASVKVSCKASGYTFTSYWMHWVRQAPGQGLEWMGMIHPNSDNTIYYQKFQGRVTMTVDKSISTAYMELSRLRSDDTAVYYCAIIITPVVPKFDYWGQGTLVTVSSASTKGPSVFPLAPSSKSTSGGTAALGCLVKDYFPEPVTVSWNSGALTSGVHTFPAVLQSSGLYSLSSVVTVPSSSLGTQTYICNVNHKPSDTKVDKKVEPKSCDKTHTCPPCPAPPVAGPSVFLFPPKPKDTLMISRTPEVTCVVVDVKHEDPEVKFNWYVDGVEVHNAKTKPREEEYNSTYRVVSVLTVLHQDWLNGKEYKCKVSNKALPAPIEKTISKAKGQPREPQVYTLPPSREEMTKNQVSLTCDVSGFYPSDIAVEWESDGQPENNYKTTPPVLDSDGSFFLYSKLTVDKSRWEQGDVFSCSVMHEALHNHYTQKSLSLSPGK
chain 2: not shown
chain 3: DIVMTQSPDSLAVSLGERATINCKASHDVGTSVAWYQQKPGQSPKLLIYWASTRHTGVPDRFTGSGSGTDFTLTISSLQAEDVAVYFCQQYYSYPLTFGAGTKLEIKRTVAAPSVFIFPPSDEQLKSGTASVVCLLNNFYPREAKVQWKVDNALQSGNSQESVTEQDSKDSTYSLSSTLTLSKADYEKHKVYACEVTHQGLSSPVTKSFNRGEC
On to B1, for which, in the experiment with human mesothelin (MSLN) [1], the Kd (usually the constant that tells how readily two partners part at equilibrium) was found to be 10.2 nM; the off-rate (koff) (as a rule, the first-order rate constant of dissociation) turned out to be 0.00822 s⁻¹; the kon – broadly, the rate constant with which the complex forms – was determined as 803000 M⁻¹ s⁻¹.

B2: XENP39534 (bispecific antibody)
heavy 1: B1 chain 1 with Q62E, M430L, N436S
heavy 2: not shown
light 1: B1 chain 3 with Y92S
light 2: B1 chain 3 with Y92S
notes: also called XENP39534 MSLN (0.3 nM) x CD28 (180 nM) 2+1 mAb-scFv
Regarding B2, the Kd with human CD28 [2] is 180 nM; with human mesothelin (MSLN) [3], 0.3 nM.

B3: XENP31697 (bispecific antibody)
chain 1: B1 chain 1 with Q62E
chain 2: not shown
chain 3: B1 chain 3 with Y92S
For B3, in experiment [4], the EC50 (read off the curve) – broadly, the concentration that produces a half-maximal response – is ~0.07 µg/mL. For the same molecule, in the experiment with human mesothelin (MSLN) [5], the Kd stood at 0.28 nM.

B4: XENP39534 (bispecific antibody)
heavy 1: B1 chain 1 with Q62E, M430L, N436S
heavy 2: not shown
light 1: B1 chain 3 with Y92S
light 2: B1 chain 3 with Y92S
notes: also called H1_L1.71
The molecule B4 came in with a Kd with human CD28 [6] of 460 nM.

B5: XENP31717 (bispecific antibody)
chain 1: B1 chain 1 with Q62E
chain 2: QVQLVQSGAEVKKPGASVKVSCKASGYTFTSYWMHWVRQAPGQGLEWMGMIHPNSDNTIYYEKFQGRVTMTVDKSISTAYMELSRLRSDDTAVYYCAIIITPVVPKFDYWGQGTLVTVSSASTKGPSVFPLAPSSKSTSGGTAALGCLVKDYFPEPVTVSWNSGALTSGVHTFPAVLQSSGLYSLSSVVTVPSSSLGTQTYICNVNHKPSNTKVDKKVEPKSCGGGGSGGGGSQAVVTQEPSLTVSPGGTVTLTCGSSTGAVTTSNYANWVQQKPGKSPRGLIGGTNKRAPGVPARFSGSLLGGKAALTISGAQPEDEADYYCALWYSNHWVFGGGTKLTVLGKPGSGKPGSGKPGSGKPGSEVQLVESGGGLVQPGGSLRLSCAASGFTFSTYAMNWVRQAPGKGLEWVGRIRSKANNYATYYADSVKGRFTISRDDSKNTLYLQMNSLRAEDTAVYYCVRHGNFGDSYVSWFAYWGQGTLVTVSSGGGGSGGGGSKTHTCPPCPAPPVAGPSVFLFPPKPKDTLMISRTPEVTCVVVDVKHEDPEVKFNWYVDGVEVHNAKTKPREEQYNSTYRVVSVLTVLHQDWLNGKEYKCKVSNKALPAPIEKTISKAKGQPREPQVYTLPPSREQMTKNQVKLTCLVKGFYPSDIAVEWESNGQPENNYKTTPPVLDSDGSFFLYSKLTVDKSRWQQGNVFSCSVMHEALHNHYTQKSLSLSPGK
chain 3: B1 chain 3 with Y92S
In the experiment with human mesothelin (MSLN) [7], B5 gave a Kd of 0.28 nM. Besides, the “EC50 (read off the curve)” value in [4] is ~0.04 µg/mL.

B6: XENP32745 (bispecific antibody)
chain 1: B1 chain 1 with Q62E
chain 2: B5 chain 2
chain 3: B1 chain 3 with D28S, Y92S
Molecule B6 returned a dissociation constant Kd with human mesothelin (MSLN) [7] of 0.45 nM. In addition, the “EC50 (read off the curve)” value in [8] was ~0.05 µg/mL.

B7: XENP44468 (bispecific antibody)
chain 1: B1 chain 1 with Q62E, M430L, N436S
chain 2: not shown
chain 3: B1 chain 3 with Y92S
notes: also called 2+1 Fab2-scFv-Fc MSLN x CD28 bsAb
Take B7: in the experiment with human CD28 [6], the dissociation constant (Kd) came to 1200 nM.

B8: XENP44475 (bispecific antibody)
heavy: QVQLVQSGAEVKKPGASVKVSCKASGYTFTSYWMHWVRQAPGQGLEWMGMIHPNSDNTIYYEKFQGRVTMTVDKSISTAYMELSRLRSDDTAVYYCAIIITPVVPKFDYWGQGTLVTVSSASTKGPSVFPLAPSSKSTSGGTAALGCLVKDYFPEPVTVSWNSGALTSGVHTFPAVLQSSGLYSLSSVVTVPSSSLGTQTYICNVNHKPSDTKVDKKVEPKSCGGGGSGGGGSQVQLVQSGAEVKKPGASVKVSCKASGYTFTSYWMHWVRQAPGQGLEWMGMIHPNSDNTIYYEKFQGRVTMTVDKSISTAYMELSRLRSDDTAVYYCAIIITPVVPKFDYWGQGTLVTVSSASTKGPSVFPLAPSSKSTSGGTAALGCLVKDYFPEPVTVSWNSGALTSGVHTFPAVLQSSGLYSLSSVVTVPSSSLGTQTYICNVNHKPSDTKVDKKVEPKSCDKTHTCPPCPAPPVAGPSVFLFPPKPKDTLMISRTPEVTCVVVDVKHEDPEVKFNWYVDGVEVHNAKTKPREEEYNSTYRVVSVLTVLHQDWLNGKEYKCKVSNKALPAPIEKTISKAKGQPREPQVYTLPPSREEMTKNQVSLTCDVSGFYPSDIAVEWESDGQPENNYKTTPPVLDSDGSFFLYSKLTVDKSRWEQGDVFSCSVLHEALHSHYTQKSLSLSPGK
scFv-Fc: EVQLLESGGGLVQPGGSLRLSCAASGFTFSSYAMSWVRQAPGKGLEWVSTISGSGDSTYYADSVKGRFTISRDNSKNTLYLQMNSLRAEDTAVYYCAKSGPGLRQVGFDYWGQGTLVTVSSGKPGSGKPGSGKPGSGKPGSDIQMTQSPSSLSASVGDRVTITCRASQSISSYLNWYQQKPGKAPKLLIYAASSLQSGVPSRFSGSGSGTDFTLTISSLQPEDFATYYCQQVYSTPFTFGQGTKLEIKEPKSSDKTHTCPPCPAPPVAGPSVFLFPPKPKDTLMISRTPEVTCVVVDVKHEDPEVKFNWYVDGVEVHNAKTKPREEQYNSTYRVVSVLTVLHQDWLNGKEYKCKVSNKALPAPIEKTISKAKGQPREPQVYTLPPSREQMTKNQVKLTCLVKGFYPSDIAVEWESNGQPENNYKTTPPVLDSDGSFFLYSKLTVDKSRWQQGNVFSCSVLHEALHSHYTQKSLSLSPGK
light 1: B1 chain 3 with Y92S
light 2: B1 chain 3 with Y92S
notes: also called XENP44475 MSLN (0.3 nM) x CD28 (180 nM) 2+1 Fab2-Fc x scFv-Fc
On to B8, for which the “EC50 (read off the curve)” value in [9] is ~0.005 µg/mL. The values for the Kd with human CD28 [10] and with human mesothelin (MSLN) [11] were 180 nM and 0.3 nM, respectively.

B9: XENP44469 (bispecific antibody)
heavy 1: B1 chain 1 with Q62E, M430L, N436S
heavy 2: not shown
light 1: B1 chain 3 with Y92S
light 2: B1 chain 3 with Y92S
notes: also called XENP44469 MSLN (0.3 nM) x CD28 (180 nM) 2+1 Fab2-scFv-Fc
In the case of B9, the concentration for a half-maximal effect (EC50 (read off the curve)) in experiment [9] was ~0.004 µg/mL. In addition, the dissociation constant Kd in the experiment with human CD28 [10] was 180 nM; with human mesothelin (MSLN) [11], 0.3 nM.

B10: XENP39570 (bispecific antibody)
heavy: B1 chain 1 with M50W, Q62E, M430L, N436S
scFv-Fc: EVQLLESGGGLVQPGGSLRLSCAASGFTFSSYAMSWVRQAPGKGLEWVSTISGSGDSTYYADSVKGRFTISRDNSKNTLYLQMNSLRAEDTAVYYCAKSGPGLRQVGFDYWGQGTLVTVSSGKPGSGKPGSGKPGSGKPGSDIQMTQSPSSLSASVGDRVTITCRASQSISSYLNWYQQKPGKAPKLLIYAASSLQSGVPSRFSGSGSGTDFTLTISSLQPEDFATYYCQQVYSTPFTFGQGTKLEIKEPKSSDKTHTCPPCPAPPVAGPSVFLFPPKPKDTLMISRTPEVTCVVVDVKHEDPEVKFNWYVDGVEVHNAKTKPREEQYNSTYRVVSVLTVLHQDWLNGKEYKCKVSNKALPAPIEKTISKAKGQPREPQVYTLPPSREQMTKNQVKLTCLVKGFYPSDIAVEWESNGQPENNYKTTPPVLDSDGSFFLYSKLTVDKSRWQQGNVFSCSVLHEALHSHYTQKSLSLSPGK
light: B1 chain 3 with T31Q, Y92S
notes: also called XENP39570 MSLN (90 nM) x CD28 (180 nM) 1+1 Fab-scFv-Fc
On to B10, for which the Kd with human CD28 [2] turned out to be 180 nM; with human mesothelin (MSLN) [3], 90 nM.
